What was measured:
[1] = biological target: T1, truncated CD123 target (D2/D3 domains), D2-D3-hCD123 (human, UniProt P26951 101-305); assay: HTRF, purified DARPin protein with truncated D2-D3-hCD123, hIgG-d2 and anti-His-Tb
T1 construct: domain: D2/D3; Bought from Evitria; Detected with hIgG-d2, so it probably carries an Fc tag; also called truncated target (D2-D3-hCD123)
T1 sequence (looked up): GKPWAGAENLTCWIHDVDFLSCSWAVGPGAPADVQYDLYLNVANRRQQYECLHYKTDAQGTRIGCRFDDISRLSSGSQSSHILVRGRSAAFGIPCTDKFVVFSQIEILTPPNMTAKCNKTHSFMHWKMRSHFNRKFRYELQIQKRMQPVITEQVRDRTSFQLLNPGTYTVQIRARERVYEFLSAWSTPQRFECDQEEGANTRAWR
Source text: (§1) The CD123 epitope bound by CD123-specific ankyrin repeat proteins of the invention was investigated using truncated CD123 target protein as well as competition ELISA and HTRF against the benchmark control molecule flotetuzumab-similar (CD3-CD123 specific DART®, purchased from Evitria) and the natural ligand IL-3 (purchased by Peprotech), First, full-length (NTD/D2/D3 domains) and truncated (D2/D3 domains) CD123 targets (purchased from Evitria) were applied in an HTRF binding assay in which they were incubated with DARPin® protein #1 and binding was detected by using either the HTRF reagents Anti 6His-d2 and Streptavidin-Tb for full-length CD123 or hIgG-d2 and anti-His-Tb for truncated CD123. […] The excitation of the reaction was measured at 340 nm and emission at 665 nm and the background at 340 nM and 620 nM respectively. […] Binding was detected by using either the HTRF reagents Anti 6His-d2 and Streptavidin-Tb for full-length CD123 or hIgG-d2 and anti-His-Tb for truncated CD123 target.

[2] = biological target: T2, biotinylated extracellular domains of human CD123 with C-terminal Fc tag and Avi tag (bio.hCD123-Fc(kih)-Avi) (human, UniProt P26951 19-303, biotinylated with BirA-GST (Avi tag)); assay: HTRF, full-length biotinylated hCD123-Fc(kih)-Avi
T2 construct: Bought from Evitria; the second Fc chain and the number of CD123 arms are not described; also called biotinylated hCD123; recombinant human CD123 target; not shown: Avi tag
T2 sequence: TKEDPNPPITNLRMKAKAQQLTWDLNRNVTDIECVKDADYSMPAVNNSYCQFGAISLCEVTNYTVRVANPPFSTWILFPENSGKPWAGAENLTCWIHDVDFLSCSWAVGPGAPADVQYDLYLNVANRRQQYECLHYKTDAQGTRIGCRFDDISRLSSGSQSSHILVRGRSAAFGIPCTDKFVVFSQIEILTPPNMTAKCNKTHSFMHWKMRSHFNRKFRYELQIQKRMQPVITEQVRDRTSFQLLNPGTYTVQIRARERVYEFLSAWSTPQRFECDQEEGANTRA
Source text: as §1

B1: DARPin® protein #20 (non-binding DARPin molecule) (designed binder)
chain: DLGKKLLEAARAGQDDEVRELLKAGADVNAKDKDGYTPLHLAAREGHLEIVEVLLKAGADVNAKDKDGYTPLHLAAREGHLEIVEVLLKAGADVNAQDKSGKTPADLAADAGHEDIAEVLQKAA
notes: Control
B1: no binding [1]; no binding [2].
